In patent US7572770B2, “Use of an interleukin 1 receptor antagonist and/or pyrrolidinedithiocarbamate for the treatment or prophylaxis of type 2 diabetes” (University of Zurich, priority 2002, dated 2009):

What was measured:
type II IL-1R = molecular target: T1, type II IL-1R (Homo sapiens, UniProt P27930); settings: read-out: Kd, binding to type II IL-1R; cited from earlier work
T1 sequence (P27930 14-398): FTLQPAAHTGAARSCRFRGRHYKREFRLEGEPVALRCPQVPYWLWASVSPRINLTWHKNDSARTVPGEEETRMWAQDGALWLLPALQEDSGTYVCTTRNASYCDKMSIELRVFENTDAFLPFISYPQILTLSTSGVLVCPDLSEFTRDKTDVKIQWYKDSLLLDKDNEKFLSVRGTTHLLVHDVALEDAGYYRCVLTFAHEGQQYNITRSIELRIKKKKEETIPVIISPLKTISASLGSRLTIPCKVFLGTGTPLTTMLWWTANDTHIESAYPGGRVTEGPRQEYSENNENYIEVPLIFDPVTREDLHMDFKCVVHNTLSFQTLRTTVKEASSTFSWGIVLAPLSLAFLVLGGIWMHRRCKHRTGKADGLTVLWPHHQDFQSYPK

type I IL-1R = molecular target: T2, type I IL-1R (Homo sapiens, UniProt P14778); settings: read-out: Kd, binding to type I IL-1R; cited from earlier work
T2 sequence (P14778 18-569): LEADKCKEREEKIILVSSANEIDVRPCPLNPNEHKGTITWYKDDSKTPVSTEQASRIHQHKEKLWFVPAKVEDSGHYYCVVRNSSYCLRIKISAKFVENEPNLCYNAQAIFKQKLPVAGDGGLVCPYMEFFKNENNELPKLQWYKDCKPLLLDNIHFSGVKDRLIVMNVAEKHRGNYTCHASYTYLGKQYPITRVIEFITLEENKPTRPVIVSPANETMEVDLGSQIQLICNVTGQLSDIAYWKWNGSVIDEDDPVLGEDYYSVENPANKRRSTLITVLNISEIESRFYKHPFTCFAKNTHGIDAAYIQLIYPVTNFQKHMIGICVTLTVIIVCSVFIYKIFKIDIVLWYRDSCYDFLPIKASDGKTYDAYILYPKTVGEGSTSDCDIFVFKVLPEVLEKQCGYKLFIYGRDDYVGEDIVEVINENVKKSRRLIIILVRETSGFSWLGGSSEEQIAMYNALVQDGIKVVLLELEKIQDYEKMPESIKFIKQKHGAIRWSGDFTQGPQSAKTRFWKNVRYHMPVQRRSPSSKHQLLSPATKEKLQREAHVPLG

NF-κB = NF-κB activation in human islets; format: cell-based; settings: 33.3 mM glucose with IL-1Ra 500 ng/ml, 44 hours
Method: Western blot analysis. Islets were cultured in a culture medium in non-adherent plastic dishes. One day after isolation, the medium was changed and groups of 200 islets were incubated for 44 hours in culture medium containing 5.5 or 33.3 mM glucose without or with 2 ng/ml IL-1β or 500 ng/ml IL-1Ra. At the end of the incubations, islets were washed in PBS, suspended in 50 μl sample buffer containing 125 mM Tris-HCl, pH 6.8, 4% SDS, 10% glycerol, 0.3% bromphenol blue, 1.8% β-mercaptoethanol and boiled for 5 min. Equivalent amounts of each treatment group were run on 15% SDS polyacrylamide gels. […] Intensity of bands was analyzed using Multianalyst™ (Bio Rad, Laboratories inc., Hercules, Calif.). […] Activation of NF-κB complex was quantified with an ELISA-based Kit, using attached oligonucleotides binding to a NF-κB consensus site and detected by an anti-p65 or p50 subunit antibody, according to the manufacturer's instructions (Trans-AM™ NFκB, Active Motif). […] Sections were incubated with mouse anti-NF-κB (p65) (1:50 dilution) or rabbit anti-IκB (1:50 dilution, C-21, Santa Cruz) antibodies, detected by donkey anti-mouse or anti-rabbit Cy3 conjugated antibodies and double stained for insulin as described above.

Q: Which Kd (type II IL-1R) does the source give for “Interleukin 1 receptor antagonist [IL-1Ra]” here?
A: Its Kd is 7 nM.

Q: And the Kd (type I IL-1R)?
A: Its Kd is 0.2 nM.

Q: And the “glucose-induced increase in NF-κB activity” value (NF-κB)?
A: The value was “prevented”.
